Laboratory results as given in publication PMC9482650, “Quantitative fragmentomics allow affinity mapping of interactomes” (Nature Communications, 2022).

B1: SDC3, O75056 (peptide)
chain: KPDKQEEFYA
B2: GRM5, P41594 (peptide)
chain: RDYTQSSSSL

biological target: GORASP1, Q9BQQ3; experiment: holdup assay; parameters: key: below the threshold = too weak to quantify, mostly under pKd 3.1 to 4; details: plain residues with an end cap or a label only (N-terminal biotin on a linker: ado-ado)
Sequence (Q9BQQ3 1-208): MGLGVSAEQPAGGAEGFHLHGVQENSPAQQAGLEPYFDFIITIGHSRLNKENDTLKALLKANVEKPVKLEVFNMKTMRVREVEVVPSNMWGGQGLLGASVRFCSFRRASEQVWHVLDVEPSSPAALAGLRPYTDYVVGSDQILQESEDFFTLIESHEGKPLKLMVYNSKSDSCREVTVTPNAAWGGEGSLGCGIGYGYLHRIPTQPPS

Row | Binder | pKd
1 | B1 | below the threshold
2 | B2 | below the threshold

biological target: T1, APBA2_2, Q99767; experiment: holdup assay; parameters: key: below the threshold = too weak to quantify, mostly under pKd 3.1 to 4; details: plain residues with an end cap or a label only (N-terminal biotin on a linker: ado-ado)
T1 sequence (Q99767 654-744, limits assumed, looked up): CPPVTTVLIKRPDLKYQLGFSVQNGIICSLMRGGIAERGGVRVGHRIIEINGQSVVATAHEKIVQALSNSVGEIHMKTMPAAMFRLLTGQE

Row | Binder | pKd
3 | B1 | below the threshold
4 | B2 | below the threshold

biological target: LIMK2, P53671; experiment: holdup assay; parameters: key: below the threshold = too weak to quantify, mostly under pKd 3.1 to 4; details: plain residues with an end cap or a label only (N-terminal biotin on a linker: ado-ado)
Sequence (P53671 143-248): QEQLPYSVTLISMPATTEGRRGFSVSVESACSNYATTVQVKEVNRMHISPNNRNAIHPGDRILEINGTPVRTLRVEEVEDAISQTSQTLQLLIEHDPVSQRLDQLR

Row | Binder | pKd
5 | B1 | below the threshold
6 | B2 | below the threshold

biological target: T2, SNTG1, Q9NSN8; experiment: holdup assay; parameters: key: below the threshold = too weak to quantify, mostly under pKd 3.1 to 4; details: plain residues with an end cap or a label only (N-terminal biotin on a linker: ado-ado)
T2 sequence (Q9NSN8 52-150, limits assumed, looked up): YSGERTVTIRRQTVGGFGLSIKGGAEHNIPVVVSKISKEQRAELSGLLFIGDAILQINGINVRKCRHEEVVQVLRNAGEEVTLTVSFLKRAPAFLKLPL

Row | Binder | pKd
7 | B1 | below the threshold
8 | B2 | below the threshold

biological target: T3, SIPA1L2, Q9P2F8; experiment: holdup assay; parameters: key: below the threshold = too weak to quantify, mostly under pKd 3.1 to 4; details: plain residues with an end cap or a label only (N-terminal biotin on a linker: ado-ado)
T3 sequence (Q9P2F8 945-1036, limits assumed, looked up): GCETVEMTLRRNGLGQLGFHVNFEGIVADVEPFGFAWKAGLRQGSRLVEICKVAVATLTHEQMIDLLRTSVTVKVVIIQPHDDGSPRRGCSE

Row | Binder | pKd
9 | B1 | below the threshold
10 | B2 | below the threshold

biological target: NHERF4_2, Q86UT5; experiment: holdup assay; parameters: key: below the threshold = too weak to quantify, mostly under pKd 3.1 to 4; details: plain residues with an end cap or a label only (N-terminal biotin on a linker: ado-ado)
Sequence (Q86UT5 220-308): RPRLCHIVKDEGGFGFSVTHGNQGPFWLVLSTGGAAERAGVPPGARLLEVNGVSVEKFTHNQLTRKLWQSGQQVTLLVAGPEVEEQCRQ

Row | Binder | pKd
11 | B1 | below the threshold
12 | B2 | below the threshold

biological target: SCRIB_3, Q14160; experiment: holdup assay; parameters: key: below the threshold = too weak to quantify, mostly under pKd 3.1 to 4; details: plain residues with an end cap or a label only (N-terminal biotin on a linker: ado-ado)
Sequence (Q14160 999-1103): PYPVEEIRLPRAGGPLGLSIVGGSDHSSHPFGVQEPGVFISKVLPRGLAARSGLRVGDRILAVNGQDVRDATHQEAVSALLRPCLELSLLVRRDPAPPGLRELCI

Row | Binder | pKd
13 | B1 | below the threshold
14 | B2 | 4.05

biological target: T4, FRMPD1, Q5SYB0; experiment: holdup assay; parameters: key: below the threshold = too weak to quantify, mostly under pKd 3.1 to 4; details: plain residues with an end cap or a label only (N-terminal biotin on a linker: ado-ado)
T4 sequence (Q5SYB0 52-145, limits assumed, looked up): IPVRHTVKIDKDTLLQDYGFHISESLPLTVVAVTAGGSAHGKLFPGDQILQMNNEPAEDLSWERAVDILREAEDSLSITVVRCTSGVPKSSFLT

Row | Binder | pKd
15 | B1 | below the threshold
16 | B2 | below the threshold

biological target: T5, PDZD7_3, Q9H5P4; experiment: holdup assay; parameters: key: below the threshold = too weak to quantify, mostly under pKd 3.1 to 4; details: plain residues with an end cap or a label only (N-terminal biotin on a linker: ado-ado)
T5 sequence (Q9H5P4 857-944, limits assumed, looked up): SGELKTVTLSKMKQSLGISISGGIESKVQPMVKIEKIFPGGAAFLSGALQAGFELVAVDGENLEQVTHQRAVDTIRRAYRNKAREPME

Row | Binder | pKd
17 | B1 | below the threshold
18 | B2 | below the threshold

biological target: T6, DFNB31_1, Q9P202; experiment: holdup assay; parameters: key: below the threshold = too weak to quantify, mostly under pKd 3.1 to 4; details: plain residues with an end cap or a label only (N-terminal biotin on a linker: ado-ado)
T6 sequence (Q9P202 135-233, limits assumed, looked up): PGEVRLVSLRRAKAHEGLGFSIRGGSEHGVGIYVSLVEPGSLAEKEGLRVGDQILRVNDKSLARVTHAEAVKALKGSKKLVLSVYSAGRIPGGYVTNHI

Row | Binder | pKd
19 | B1 | below the threshold
20 | B2 | below the threshold

biological target: TJP2_1, Q9UDY2; experiment: holdup assay; parameters: key: below the threshold = too weak to quantify, mostly under pKd 3.1 to 4; details: plain residues with an end cap or a label only (N-terminal biotin on a linker: ado-ado)
Sequence (Q9UDY2 24-128): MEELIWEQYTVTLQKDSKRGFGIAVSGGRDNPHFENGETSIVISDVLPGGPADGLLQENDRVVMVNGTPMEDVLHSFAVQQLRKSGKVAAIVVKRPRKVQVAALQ

Row | Binder | pKd
21 | B1 | below the threshold
22 | B2 | below the threshold

biological target: MAGI1_2, Q96QZ7; experiment: holdup assay; parameters: key: below the threshold = too weak to quantify, mostly under pKd 3.1 to 4; details: plain residues with an end cap or a label only (N-terminal biotin on a linker: ado-ado)
Sequence (Q96QZ7 456-580): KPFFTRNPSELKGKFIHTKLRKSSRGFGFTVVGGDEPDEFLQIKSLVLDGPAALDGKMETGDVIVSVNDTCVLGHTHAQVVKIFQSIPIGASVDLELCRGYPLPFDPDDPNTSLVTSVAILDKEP

Row | Binder | pKd
23 | B1 | below the threshold
24 | B2 | below the threshold

biological target: T7, CARD11, Q9BXL7; experiment: holdup assay; parameters: key: below the threshold = too weak to quantify, mostly under pKd 3.1 to 4; details: plain residues with an end cap or a label only (N-terminal biotin on a linker: ado-ado)
T7 sequence (Q9BXL7 662-765, limits assumed, looked up): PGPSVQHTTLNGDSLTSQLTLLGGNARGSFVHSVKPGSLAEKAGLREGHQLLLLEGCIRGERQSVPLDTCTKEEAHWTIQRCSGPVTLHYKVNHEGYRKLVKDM

Row | Binder | pKd
25 | B1 | below the threshold
26 | B2 | below the threshold

biological target: T8, SNTA1, Q13424; experiment: holdup assay; parameters: key: below the threshold = too weak to quantify, mostly under pKd 3.1 to 4; details: plain residues with an end cap or a label only (N-terminal biotin on a linker: ado-ado)
T8 sequence (Q13424 82-180, limits assumed, looked up): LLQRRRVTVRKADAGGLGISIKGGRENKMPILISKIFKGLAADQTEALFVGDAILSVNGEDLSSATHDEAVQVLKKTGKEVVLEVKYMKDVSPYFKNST

Row | Binder | pKd
27 | B1 | below the threshold
28 | B2 | below the threshold

biological target: T9, HTRA3, P83110; experiment: holdup assay; parameters: key: below the threshold = too weak to quantify, mostly under pKd 3.1 to 4; details: plain residues with an end cap or a label only (N-terminal biotin on a linker: ado-ado)
T9 sequence (P83110 354-453, limits assumed, looked up): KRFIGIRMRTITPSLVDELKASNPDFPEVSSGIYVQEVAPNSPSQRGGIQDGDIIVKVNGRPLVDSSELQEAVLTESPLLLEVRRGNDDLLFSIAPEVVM

Row | Binder | pKd
29 | B1 | 4.41
30 | B2 | below the threshold

biological target: T10, TJP3_3, O95049; experiment: holdup assay; parameters: key: below the threshold = too weak to quantify, mostly under pKd 3.1 to 4; details: plain residues with an end cap or a label only (N-terminal biotin on a linker: ado-ado)
T10 sequence (O95049 375-456, limits assumed, looked up): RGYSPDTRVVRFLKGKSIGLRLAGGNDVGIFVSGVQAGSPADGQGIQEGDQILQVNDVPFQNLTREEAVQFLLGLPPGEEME

Row | Binder | pKd
31 | B1 | below the threshold
32 | B2 | below the threshold

biological target: T11, ARHGAP21, Q5T5U3; experiment: holdup assay; parameters: key: below the threshold = too weak to quantify, mostly under pKd 3.1 to 4; details: plain residues with an end cap or a label only (N-terminal biotin on a linker: ado-ado)
T11 sequence (Q5T5U3 45-169, limits assumed, looked up): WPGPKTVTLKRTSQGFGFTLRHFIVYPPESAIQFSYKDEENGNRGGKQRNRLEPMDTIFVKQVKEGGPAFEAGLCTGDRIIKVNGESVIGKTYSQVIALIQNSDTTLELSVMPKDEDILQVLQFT

Row | Binder | pKd
33 | B1 | below the threshold
34 | B2 | 4.17

biological target: TJP1_2, Q07157; experiment: holdup assay; parameters: key: below the threshold = too weak to quantify, mostly under pKd 3.1 to 4; details: plain residues with an end cap or a label only (N-terminal biotin on a linker: ado-ado)
Sequence (Q07157 181-274): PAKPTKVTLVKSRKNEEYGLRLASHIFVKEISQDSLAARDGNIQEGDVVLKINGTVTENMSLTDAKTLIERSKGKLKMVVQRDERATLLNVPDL

Row | Binder | pKd
35 | B1 | below the threshold
36 | B2 | below the threshold

biological target: PARD3_3, Q8TEW0; experiment: holdup assay; parameters: key: below the threshold = too weak to quantify, mostly under pKd 3.1 to 4; details: plain residues with an end cap or a label only (N-terminal biotin on a linker: ado-ado)
Sequence (Q8TEW0 582-685): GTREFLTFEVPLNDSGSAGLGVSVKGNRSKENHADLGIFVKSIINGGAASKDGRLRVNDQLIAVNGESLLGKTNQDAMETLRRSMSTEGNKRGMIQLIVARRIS

Row | Binder | pKd
37 | B1 | below the threshold
38 | B2 | below the threshold

biological target: SCRIB_1, Q14160; experiment: holdup assay; parameters: key: below the threshold = too weak to quantify, mostly under pKd 3.1 to 4; details: plain residues with an end cap or a label only (N-terminal biotin on a linker: ado-ado)
Sequence (Q14160 718-814): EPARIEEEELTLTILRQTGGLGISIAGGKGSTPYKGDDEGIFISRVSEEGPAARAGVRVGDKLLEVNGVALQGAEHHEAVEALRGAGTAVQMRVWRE

Row | Binder | pKd
39 | B1 | below the threshold
40 | B2 | below the threshold

biological target: GRIP2_7, Q9C0E4; experiment: holdup assay; parameters: key: below the threshold = too weak to quantify, mostly under pKd 3.1 to 4; details: plain residues with an end cap or a label only (N-terminal biotin on a linker: ado-ado)
Sequence (Q9C0E4 934-1023): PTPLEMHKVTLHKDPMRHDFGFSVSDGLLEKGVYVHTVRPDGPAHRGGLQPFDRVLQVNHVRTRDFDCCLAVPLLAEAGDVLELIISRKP

Row | Binder | pKd
41 | B1 | below the threshold
42 | B2 | below the threshold

biological target: T12, PARD3B_1, Q8TEW8; experiment: holdup assay; parameters: key: below the threshold = too weak to quantify, mostly under pKd 3.1 to 4; details: plain residues with an end cap or a label only (N-terminal biotin on a linker: ado-ado)
T12 sequence (Q8TEW8 196-299, limits assumed, looked up): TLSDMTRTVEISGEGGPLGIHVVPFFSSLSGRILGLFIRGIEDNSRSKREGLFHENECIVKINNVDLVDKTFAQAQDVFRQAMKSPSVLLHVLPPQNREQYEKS

Row | Binder | pKd
43 | B1 | 4.65
44 | B2 | 3.82

biological target: GRIP2_3, Q9C0E4; experiment: holdup assay; parameters: key: below the threshold = too weak to quantify, mostly under pKd 3.1 to 4; details: plain residues with an end cap or a label only (N-terminal biotin on a linker: ado-ado)
Sequence (Q9C0E4 238-339): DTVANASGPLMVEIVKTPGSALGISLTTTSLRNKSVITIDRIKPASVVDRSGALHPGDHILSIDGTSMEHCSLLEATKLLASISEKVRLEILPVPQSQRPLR

Row | Binder | pKd
45 | B1 | below the threshold
46 | B2 | below the threshold

biological target: T13, DFNB31_3, Q9P202; experiment: holdup assay; parameters: key: below the threshold = too weak to quantify, mostly under pKd 3.1 to 4; details: plain residues with an end cap or a label only (N-terminal biotin on a linker: ado-ado)
T13 sequence (Q9P202 811-907, limits assumed, looked up): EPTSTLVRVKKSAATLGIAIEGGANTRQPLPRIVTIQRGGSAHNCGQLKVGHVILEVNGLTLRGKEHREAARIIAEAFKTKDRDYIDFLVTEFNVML

Row | Binder | pKd
47 | B1 | 3.49
48 | B2 | below the threshold
